Residue numbers refer to the chain shown, from its start.

The assay addresses human FGFR1c + KLB receptor complex on HEK293 iLite FGF21 reporter cells (human, UniProt P11362 22-822; Q86Z14 1-1044). The assay is described as follows: cell-based or functional assay.

human FGFR1c + KLB receptor complex on HEK293 iLite FGF21 reporter cells, sequence (P11362 22-822, chain 1 of 2): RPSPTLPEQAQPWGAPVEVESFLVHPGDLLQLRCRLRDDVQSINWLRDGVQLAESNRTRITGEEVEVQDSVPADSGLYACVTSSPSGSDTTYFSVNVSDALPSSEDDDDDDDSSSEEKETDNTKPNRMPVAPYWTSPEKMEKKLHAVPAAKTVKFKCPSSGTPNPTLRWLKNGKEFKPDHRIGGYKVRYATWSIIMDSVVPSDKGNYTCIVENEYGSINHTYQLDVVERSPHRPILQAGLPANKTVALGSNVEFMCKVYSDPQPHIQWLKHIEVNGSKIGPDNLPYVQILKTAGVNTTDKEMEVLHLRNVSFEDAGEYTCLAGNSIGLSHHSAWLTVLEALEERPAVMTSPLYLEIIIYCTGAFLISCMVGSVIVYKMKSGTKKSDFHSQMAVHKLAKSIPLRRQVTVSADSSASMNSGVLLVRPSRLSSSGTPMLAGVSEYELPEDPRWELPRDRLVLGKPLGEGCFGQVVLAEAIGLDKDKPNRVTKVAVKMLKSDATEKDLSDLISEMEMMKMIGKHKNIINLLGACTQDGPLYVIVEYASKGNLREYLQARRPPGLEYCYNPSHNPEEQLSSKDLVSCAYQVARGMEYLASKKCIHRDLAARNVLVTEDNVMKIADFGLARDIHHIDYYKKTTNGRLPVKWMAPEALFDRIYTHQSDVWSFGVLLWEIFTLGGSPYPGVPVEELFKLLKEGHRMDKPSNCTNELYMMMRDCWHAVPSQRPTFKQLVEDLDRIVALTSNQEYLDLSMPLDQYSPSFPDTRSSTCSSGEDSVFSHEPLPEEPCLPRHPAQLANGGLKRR
human FGFR1c + KLB receptor complex on HEK293 iLite FGF21 reporter cells, sequence (Q86Z14 whole entry, chain 2 of 2): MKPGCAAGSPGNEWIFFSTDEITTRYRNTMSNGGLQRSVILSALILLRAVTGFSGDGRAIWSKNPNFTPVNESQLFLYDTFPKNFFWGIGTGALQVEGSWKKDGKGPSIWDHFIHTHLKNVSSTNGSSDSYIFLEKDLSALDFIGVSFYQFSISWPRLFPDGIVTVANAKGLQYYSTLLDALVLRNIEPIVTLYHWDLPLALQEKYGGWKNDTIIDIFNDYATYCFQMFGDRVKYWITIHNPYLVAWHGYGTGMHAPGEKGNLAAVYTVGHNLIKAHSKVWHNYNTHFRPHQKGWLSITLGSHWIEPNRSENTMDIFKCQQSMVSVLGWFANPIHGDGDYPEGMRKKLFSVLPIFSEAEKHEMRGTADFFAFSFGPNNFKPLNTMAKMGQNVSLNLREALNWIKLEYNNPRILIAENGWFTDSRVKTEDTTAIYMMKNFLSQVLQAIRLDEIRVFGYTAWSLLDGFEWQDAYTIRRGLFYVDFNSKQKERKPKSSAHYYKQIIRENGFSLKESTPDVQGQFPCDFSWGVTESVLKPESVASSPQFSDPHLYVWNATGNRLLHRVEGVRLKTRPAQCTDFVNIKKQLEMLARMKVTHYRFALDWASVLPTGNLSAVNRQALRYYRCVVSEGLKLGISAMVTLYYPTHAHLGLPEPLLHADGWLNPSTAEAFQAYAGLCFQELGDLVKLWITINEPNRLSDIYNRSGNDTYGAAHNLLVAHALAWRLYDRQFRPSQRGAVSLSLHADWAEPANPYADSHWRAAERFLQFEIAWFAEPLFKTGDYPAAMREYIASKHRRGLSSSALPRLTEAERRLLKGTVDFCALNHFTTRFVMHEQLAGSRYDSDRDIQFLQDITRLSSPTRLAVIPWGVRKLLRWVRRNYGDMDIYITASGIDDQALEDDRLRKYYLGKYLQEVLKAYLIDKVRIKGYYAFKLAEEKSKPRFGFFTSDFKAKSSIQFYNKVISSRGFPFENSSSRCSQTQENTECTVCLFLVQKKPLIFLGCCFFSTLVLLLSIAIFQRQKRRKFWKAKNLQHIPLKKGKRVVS

B1: human FGF21 (ligand)
chain: GHPIPDSSPLLQFGGQVRQRYLYTDDAQQTEAHLEIREDGTVGGAADQSPESLLQLKALKPGVIQILGVKTSRFLCQRPDGALYGSLHFDPEACSFRELLLEDGYNVYQSEAHGLPLHLPGNKSPHRDPAPRGPARFLPLPGLPPAPPEPPGILAPQPPDVGSSDPLSMVGPSQGRSPSYAS
In the case of B1, the EC50 amounted to 0.35 nmol/L and the Emax was found to be 4000%.

B2: Ab0181 (antibody, IgG4, V domains shown)
VH: not shown
VL: SYVLTQPPSVSVAPGQTARITCGGNNIGSESVHWYQQKPGQAPVLVVYYDSDRPSGIPERFSGSNSGNTATLTISRVEAGDEADYYCQVWDGNSDHVVFGGGTKLTVLG
As to B2, the EC50 worked out at 0.03 nmol/L and the maximum response (Emax) stood at 2110%.

B3: Ab0211 (antibody, IgG4, V domains shown)
VH: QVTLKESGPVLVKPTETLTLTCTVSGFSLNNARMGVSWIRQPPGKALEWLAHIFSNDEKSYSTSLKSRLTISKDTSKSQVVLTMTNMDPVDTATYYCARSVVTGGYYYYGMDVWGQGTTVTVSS
VL: B2 VL with Y49D, D91T
Take B3: the EC50 amounted to 12 nmol/L and the Emax was determined as 1600%.

B4: Ab0210 (antibody, IgG4, V domains shown)
VH: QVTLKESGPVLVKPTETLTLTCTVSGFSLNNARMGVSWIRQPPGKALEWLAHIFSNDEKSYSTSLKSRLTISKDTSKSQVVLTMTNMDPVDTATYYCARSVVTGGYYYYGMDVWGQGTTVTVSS
VL: B2 VL with Y49D, D50E
As for B4, the EC50 came to 5.31 nmol/L and the Emax amounted to 2390%.

B5: Ab0213 (antibody, IgG4, V domains shown)
VH: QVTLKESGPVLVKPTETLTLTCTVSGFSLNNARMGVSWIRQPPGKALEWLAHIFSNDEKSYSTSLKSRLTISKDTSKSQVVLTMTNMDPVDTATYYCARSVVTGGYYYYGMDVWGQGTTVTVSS
VL: B2 VL with Y49D, D95E
For B5, the EC50 was above 100 nmol/L and the Emax stood at 122%.

B6: Ab0206 (antibody, IgG4, V domains shown)
VH: QVTLKESGPVLVKPTETLTLTCTVSGFSLNNARVGVSWIRQPPGKALEWLAHIFSNDEKSYSTSLKSRLTISKDTSKSQVVLTMTNMDPVDTATYYCARSVVTGGYYYEGMDVWGQGTTVTVSS
VL: B2 VL with Y49D, D95E
Take B6: the EC50 was 0.69 nmol/L and the Emax amounted to 2640%.

B7: Ab0209 (antibody, IgG4, V domains shown)
VH: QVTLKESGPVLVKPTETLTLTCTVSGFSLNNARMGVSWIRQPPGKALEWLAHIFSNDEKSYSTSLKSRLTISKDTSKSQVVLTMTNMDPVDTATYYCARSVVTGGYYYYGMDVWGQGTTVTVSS
VL: B2 VL
Consider B7, for which the EC50 turned out to be 15.3 nmol/L and the maximal effect (Emax) was determined as 1960%.

B8: Ab0220 (antibody, IgG4, V domains shown)
VH: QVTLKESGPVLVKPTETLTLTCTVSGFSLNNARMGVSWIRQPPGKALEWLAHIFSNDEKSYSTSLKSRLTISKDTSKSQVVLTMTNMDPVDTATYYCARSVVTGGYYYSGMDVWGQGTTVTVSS
VL: B2 VL with Y49D, D95E
As for B8, the EC50 came out at 22.2 nmol/L and the maximal response (Emax) was 1190%.

B9: Ab0192 (antibody, IgG4, V domains shown)
VH: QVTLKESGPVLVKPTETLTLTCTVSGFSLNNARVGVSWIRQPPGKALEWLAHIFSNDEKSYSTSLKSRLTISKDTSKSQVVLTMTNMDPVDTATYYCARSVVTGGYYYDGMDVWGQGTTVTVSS
VL: B2 VL with Y49D, D95E
In the case of B9, the EC50 worked out at 3.67 nmol/L and the Emax was determined as 1610%.

B10: Ab0199 (antibody, IgG4, V domains shown)
VH: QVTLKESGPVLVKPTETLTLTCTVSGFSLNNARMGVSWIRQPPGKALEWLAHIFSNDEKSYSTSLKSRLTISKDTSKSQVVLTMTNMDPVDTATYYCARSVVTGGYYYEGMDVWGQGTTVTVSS
VL: B2 VL with Y49D, D95E
Turning to B10, the EC50 was above 100 nmol/L and the Emax is 736%.

B11: Ab0224 (antibody, IgG4, V domains shown)
VH: not shown
VL: B2 VL with Y49A
For B11, the EC50 is 0.05 nmol/L and the maximal response (Emax) came out at 2260%.

B12: Ab0386 (antibody, IgG4, V domains shown)
VH: B6 VH with F54W
VL: B2 VL with Y49D, W90F, D95S
Consider B12, for which the concentration for a half-maximal effect (EC50) is above 100 nmol/L.

B13: Ab0330 (antibody, IgG4, V domains shown)
VH: B6 VH
VL: B2 VL with N25S, Y49S, D50E, D91A, N93E
Consider B13, for which the EC50 came out at 0.15 nmol/L and the Emax amounted to 932%.

B14: Ab0350 (antibody, IgG4, V domains shown)
VH: B6 VH
VL: B2 VL with N25S, Y49E, D50E, D91A, N93S
For the molecule B14, the 50% effective concentration (EC50) is 1.46 nmol/L and the maximal effect (Emax) was 493%.

B15: Ab0415 (antibody, IgG4, V domains shown)
VH: B6 VH
VL: B2 VL with N25S, D50E, D91A, N93E
As to B15, the EC50 stood at 0.3 nmol/L and the Emax stood at 674%.

These data come from patent US20220010021A1 (Sanofi, published 2022).
